From US20070249530A1 (Genentech, published 2007) come the findings set out here.

For orientation: IC50 means the midpoint of a concentration-inhibition curve. Higher therefore signals lower potency. The Kd is the concentration at which binding is half-saturated. Higher therefore signals lower affinity. The term koff denotes a measure of how fast the partners let go of each other. The low end stands for slow dissociation, the high end for fast dissociation. What is called kon is a measure of how fast the partners come together. A higher kon goes with faster complex formation.

For assay [1], the target named is T1, Human BAFF (residues 82-285) (human, UniProt Q9Y275 82-285).
T1 construct: also called BAFF82-285
T1 sequence (Q9Y275 82-285): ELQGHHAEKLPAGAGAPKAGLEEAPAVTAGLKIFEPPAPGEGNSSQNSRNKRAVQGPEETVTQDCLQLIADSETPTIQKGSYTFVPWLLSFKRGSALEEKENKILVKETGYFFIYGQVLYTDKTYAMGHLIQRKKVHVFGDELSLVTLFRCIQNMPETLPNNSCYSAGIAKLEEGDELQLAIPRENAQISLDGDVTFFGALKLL
The experiment in a line: competitive displacement ELISA; immobilized BAFF, tracer biotinylated mini-BR3; bivalent Fc construct (avidity); competition ELISA. On the technique in general: In an ELISA, binding on a coated surface is turned into a signal by an enzyme label.

The target of assay [2] is T1, Human BAFF (residues 82-285). The experiment in a line: competitive displacement ELISA on immobilized BAFF; unbiotinylated BCMA-Fc varied, tracer biotinylated miniBR3.
Experimental: The plate washed with PBS and blocked for 1 hr with 200 μl of 0.2% BSA in PBS at room temperature. […] The plate washed with PBS/Tween-20 and incubated with 100 μl/well of 0.1 U/ml Streptavidin-POD (Boehringer Mannheim) for 15 minutes at room temperature. After washing the plate with PBS/0.05% Tween-20 followed by a final wash in PBS, the plate was incubated for 5 min with 100 μl/well PBS substrate solution containing 0.8 mg/ml OPD (Sigma) and 0.01% H₂O₂.
For assay [3] the target is unchanged. The assay is described as follows: SPR (BIAcore 3000), BAFF immobilized, 1:1 model. (In general: Surface plasmon resonance follows binding to a sensor surface in real time, without labels.)
Experimental: CM5 chips from BIAcore were docked according to manufacturer instructions. Then, BIAcore system was primed with 0.2 μm filtered buffer containing 10 mM Hepes pH 7.2, 150mM NaCl, 0.005% Tween20. After buffer priming, the flow cells were normalized with 70% glycerol. Each flow cell surface was activated individually in preparation for linkage of the ligand to the chip with a 1:1 mixture of EDC(N-ethyl-N′-(3-dimethyl aminopropyl)-carbodiimide hydrochloride) and NHS (N-hydroxysuccinimide). […] Generally, the ligand to be immobilized (30 μg/ml in 10 mM NaOAc, pH 5 buffer) was injected into the system at 40 μl/min. Once approximately 400 RU was generated, the flow cell was blocked with ethanolamine. […] The system was then primed again.
The ligand-receptor complex was allowed to dissociate by washing the flow cell at 30 μl/min for 600 seconds. Alternatively, if several binding measurements over the same flow cell were to be performed, the ligand-receptor complex was allowed to dissociate by washing the flow cell at 30 μl/min for 900 seconds. Sensorgrams were recorded for each binding assay. A 1:1 Langmuir binding equation was used to simultaneously fit the association and dissociation rates of the ligand-analyte interactions. kₐ, kd, KD were calculated using curve fit analysis software provided with the BiaCore instrument
For assay [4] the target is unchanged. The assay is described as follows: SPR (BIAcore 3000), BAFF immobilized.

AGQCSQNEYFDSLLHACIPCQLRCSSNTPPLTCQRYCNASVTNSVKG (Fc fusion, not shown: a dimerising Fc or GST, also called BCMA(wt)-Fc; BCMA-Fc wt) [BCMA-Fc]: in assay [1], the 50% inhibitory concentration (IC50) was determined as 13 nM. The “IC50 (read off the curve)” value in assay [2] is about 9 nM. Also, in assay [3], binding was characterised by a dissociation constant (Kd) of 4.9 nM, the koff came to 0.0034 s⁻¹ and the on-rate (kon) was 680000 M⁻¹ s⁻¹.

B1: BCMA ECD purified from baculovirus expression (receptor, not shown: small tags and cut ends)
chain: MAGQCSQNEYFDSLLHACIPCQLRCSSNTPPLTCQRYCNASVTNSVKGTN
notes: also called BCMA(baculovirus); baculovirus BCMA
B1: the binding result in assay [4] is listed as “no binding (tested: analyte 6.25 nM to 200 nM)”.
